In paper PMC12069552, “Root stem cell homeostasis in Arabidopsis involves cell-type specific transcription factor complexes” (EMBO Reports, 2025):

Tests used:
TPL-mVenus = target: T1, TPL-mVenus (Arabidopsis thaliana, UniProt Q94AI7 1-1131); assay: FRET or BRET; FRET-FLIM in nuclei of transiently expressing N. benthamiana epidermal leaf cells; mVenus fusion as donor, mCherry fusion as acceptor; 'binding' [%] is the amplitude of the FRET component (number of donor molecules undergoing FRET); binding cutoff 10%; a binding not significantly different from the negative control (mCherry-NLS) is regarded as no interaction; conditions: partners not purified
T1 construct: TOPLESS (TPL) of Arabidopsis thaliana; the CDS amplified from cDNA; FRET donor; source: N. benthamiana abaxial epidermal leaf cells, transiently expressed (β-estradiol inducible), in cells
T1 sequence (looked up): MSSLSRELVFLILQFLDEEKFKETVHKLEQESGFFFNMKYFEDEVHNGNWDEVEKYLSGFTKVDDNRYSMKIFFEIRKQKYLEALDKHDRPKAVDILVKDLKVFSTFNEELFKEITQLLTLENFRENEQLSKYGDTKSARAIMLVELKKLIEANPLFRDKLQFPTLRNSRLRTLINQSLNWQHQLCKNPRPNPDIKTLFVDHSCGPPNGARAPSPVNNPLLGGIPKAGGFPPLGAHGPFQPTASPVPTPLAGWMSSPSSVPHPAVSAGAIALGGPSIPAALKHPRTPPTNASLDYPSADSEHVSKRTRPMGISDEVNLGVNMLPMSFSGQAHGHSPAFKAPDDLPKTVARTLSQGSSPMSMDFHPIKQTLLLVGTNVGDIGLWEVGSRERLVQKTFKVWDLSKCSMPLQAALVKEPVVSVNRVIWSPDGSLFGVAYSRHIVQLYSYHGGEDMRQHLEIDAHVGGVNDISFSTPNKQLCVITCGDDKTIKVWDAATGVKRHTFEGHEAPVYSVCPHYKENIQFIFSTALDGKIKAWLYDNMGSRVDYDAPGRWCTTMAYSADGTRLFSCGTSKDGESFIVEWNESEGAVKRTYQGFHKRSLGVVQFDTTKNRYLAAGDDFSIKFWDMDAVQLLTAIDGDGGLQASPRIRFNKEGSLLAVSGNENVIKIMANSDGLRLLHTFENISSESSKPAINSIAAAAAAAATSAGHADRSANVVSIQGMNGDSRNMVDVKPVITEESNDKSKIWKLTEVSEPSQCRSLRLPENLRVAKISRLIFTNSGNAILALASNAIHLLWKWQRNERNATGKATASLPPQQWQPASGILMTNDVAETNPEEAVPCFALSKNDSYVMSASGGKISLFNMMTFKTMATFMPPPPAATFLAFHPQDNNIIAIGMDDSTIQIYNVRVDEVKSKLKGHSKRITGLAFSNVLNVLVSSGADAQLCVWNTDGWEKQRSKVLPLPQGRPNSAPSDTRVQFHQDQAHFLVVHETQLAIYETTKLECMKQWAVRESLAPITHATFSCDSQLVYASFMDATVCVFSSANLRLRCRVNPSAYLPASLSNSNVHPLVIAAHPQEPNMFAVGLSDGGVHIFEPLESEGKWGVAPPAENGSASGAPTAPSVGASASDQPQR

[1] = target: T2, WOX5-mV(N) BRAVO-mV(C) heterodimer (BiFC donor) (Arabidopsis thaliana, UniProt Q8H1D2 1-182; Q6R053 1-323); assay: split reporter (BiFC, NanoBiT) + FRET or BRET; BiFC-FRET-FLIM in nuclei of N. benthamiana epidermal leaf cells; mVenus donor split into mV(N) and mV(C) on two proteins, third protein with mCherry as acceptor; 'binding' [%]; binding cutoff 10%; conditions: partners not purified
T2 construct: WUSCHEL-RELATED HOMEOBOX 5 (WOX5) of Arabidopsis thaliana; the CDS, described in Burkart et al, 2022; BRAVO, R2R3-MYB transcription factor of Arabidopsis thaliana; the CDS amplified from cDNA; also called WOX5-mV(N) and BRAVO-mV(C); source: N. benthamiana leaf cells, transiently co-expressed, in cells
T2 sequence (looked up) 1: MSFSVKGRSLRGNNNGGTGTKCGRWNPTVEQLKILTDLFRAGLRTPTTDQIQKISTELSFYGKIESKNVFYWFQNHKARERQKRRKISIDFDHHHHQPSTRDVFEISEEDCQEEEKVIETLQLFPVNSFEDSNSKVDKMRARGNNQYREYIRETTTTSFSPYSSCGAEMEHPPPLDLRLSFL
T2 sequence (looked up) 2: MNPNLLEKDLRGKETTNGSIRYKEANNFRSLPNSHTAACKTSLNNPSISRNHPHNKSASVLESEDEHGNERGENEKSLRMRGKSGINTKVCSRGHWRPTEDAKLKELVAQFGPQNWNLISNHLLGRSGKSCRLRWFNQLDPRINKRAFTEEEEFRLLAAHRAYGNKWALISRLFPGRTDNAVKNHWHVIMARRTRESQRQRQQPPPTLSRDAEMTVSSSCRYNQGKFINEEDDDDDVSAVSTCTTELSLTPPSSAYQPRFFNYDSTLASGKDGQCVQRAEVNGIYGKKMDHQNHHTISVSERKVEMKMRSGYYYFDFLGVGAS

[2] = target: BES1D-mVenus (Arabidopsis thaliana) (UniProt Q9LN63); assay: FRET or BRET; FRET-FLIM in nuclei of transiently expressing N. benthamiana epidermal leaf cells; mVenus fusion as donor, mCherry fusion as acceptor; 'binding' [%] is the amplitude of the FRET component (number of donor molecules undergoing FRET); binding cutoff 10%; a binding not significantly different from the negative control (mCherry-NLS) is regarded as no interaction
BES1D-mVenus (Arabidopsis thaliana), sequence (Q9LN63 whole entry, the tested form may be a part): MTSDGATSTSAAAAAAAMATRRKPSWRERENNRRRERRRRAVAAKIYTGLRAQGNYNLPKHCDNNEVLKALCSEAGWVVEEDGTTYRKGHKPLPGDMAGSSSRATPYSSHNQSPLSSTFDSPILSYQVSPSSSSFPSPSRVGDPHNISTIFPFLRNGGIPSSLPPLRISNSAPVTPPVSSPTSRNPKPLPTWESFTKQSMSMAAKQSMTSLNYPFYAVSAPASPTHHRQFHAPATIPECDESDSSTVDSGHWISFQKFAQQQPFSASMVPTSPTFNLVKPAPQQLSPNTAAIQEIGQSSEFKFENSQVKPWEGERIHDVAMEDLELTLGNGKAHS

binding (FRET-FLIM, share of donor molecules undergoing FRET) (TPL-mVenus): 13.5 ± 4.3%
binding (FRET-FLIM, share of donor molecules undergoing FRET) [1]: 31.5 ± 8.5%
binding (FRET-FLIM, share of donor molecules undergoing FRET) [2]: 16.9%
B1: PLT3-mCherry (PLETHORA 3) (natural protein, Arabidopsis thaliana, UniProt Q52QU2 1-581, looked up)
chain: MMAPMTNWLTFSLSPMEMLRSSDQSQFVSYDASSAASSSPYLLDNFYGWSNQKPQEFFKEEAQLAAAASMADSTILTTFVDPQSHHSQNHIPKLEDFLGDSSSIVRYSDNSQTDTQDSSLTQIYDPRHHHNQTGFYSDHHDFKTMAGFQSAFSTNSGSEVDDSASIGRTHLAGDYLGHVVESSGPELGFHGGSTGALSLGVNVNNNTNHRNDNDNHYRGNNNGERINNNNNNDNEKTDSEKEKAVVAVETSDCSNKKIADTFGQRTSIYRGVTRHRWTGRYEAHLWDNSCRREGQARKGRQGGYDKEDKAARAYDLAALKYWNATATTNFPITNYSKEVEEMKHMTKQEFIASLRRKSSGFSRGASIYRGVTRHHQQGRWQARIGRVAGNKDLYLGTFATEEEAAEAYDIAAIKFRGINAVTNFEMNRYDVEAIMKSALPIGGAAKRLKLSLEAAASSEQKPILGHHQLHHFQQQQQQQQLQLQSSPNHSSINFALCPNSAVQSQQIIPCGIPFEAAALYHHHQQQQQHQQQQQQQNFFQHFPANAASDSTGSNNNSNVQGTMGLMAPNPAEFFLWPNQSY
notes: PLETHORA 3 (PLT3), APETALA2-type transcription factor of Arabidopsis thaliana; CDS and construct described in Burkart et al, 2022; FRET acceptor; construct XVE:PLT3-mCherry of Burkart et al, 2022; also called full-length PLT3; source: N. benthamiana abaxial epidermal leaf cells, transiently expressed (β-estradiol inducible), in cells
